In paper PMC6141617 (2018):

B1: 14-3-3β (purified alone) (natural protein)
chain: MTMDKSELVQKAKLAEQAERYDDMAAAMKAVTEQGHELSNEERNLLSVAYKNVVGARRSSWRVISSIEQKTERNEKKQQMGKEYREKIEAELQDICNDVLELLDKYLIPNATQPESKVFYLKMKGDYFRYLSEVASGDNKQTTVSNSQQAYQEAFEISKKEMQPTHPIRLGLALNFSVFYYEILNSPEKACSLAKTAFDEAIAELDTLNEESYKDSTLIMQLLRDNLTLWTSENQGDEG
B2: GFP-ExoS^233–419 (domain or fragment)
chain: ADKALADGLVKRFGADAEKYLGRQPGGIHSDAEVMALGLYTGIHYADLNRALRQGQELDAGQKLIDQGMSAAFEKSGQAEQVVKTFRGTRGGDAFNAVEEGKVGHDDGYLSTSLNPGVARSFGQGTISTVFGRSGIDVSGISNYKNEKEILYNKETDMRVLLSASDEQGVTRRVLEEAALGEQSGHS

Columns and labels:
GFP-ExoS^419-453 = assay: FP
14-3-3β (purified alone) = biological target: B1; assay: FP

| Binder | Kd (GFP-ExoS^419-453) | Kd (14-3-3β (purified alone)) |
| --- | --- | --- |
| B1 | ~370 nM | – |
| B2 | – | > 100 nM |
